Changes are numbered by the printed parent chain. Numbers in names are those of the source.

Usually stoichiometry N stands for the number of molecules, sites or subunits per partner or assembly. By Kd is commonly meant the constant that tells how readily two partners part at equilibrium.

In data set [1] the target is p75DD-Fusion (chimera of the p75NTR death domain and a p75-interacting peptide from NRIF) (rat | not stated) (UniProt P07174). Description: SEC; purified p75NTR constructs and their mutants on a Superdex 75 column; monomer and dimer peaks; some runs with beta-ME or DTNB.
For data set [2], the target named is p75CTD symmetric dimer (dimer of the C416S mutant of p75CTD) (rat) (UniProt P07174). Briefly: SPR; Biacore 3000, 25 °C; p75CTD monomer and dimer coupled onto a CM-5 chip at equal molarities; NRIF peptide flowed over; 50 mM Hepes-KOH pH 7.5, 100 mM KCl, 5% glycerol, 0.005% Tween-20. Background: Surface plasmon resonance follows binding to a sensor surface in real time, without labels.

Data set [3] addresses T1, p75CTD monomer (p75CTD C379S/C416S) (rat, UniProt P07174 334-425, C379S | C416S, biotinylated for the BLI assay).
T1 construct: p75NTR, rat, residues 334-425; Mutant of m3; the tag is that of the parent construct; Biotinylated for BLI, coupled onto a CM-5 chip for SPR; also called double cysteine residue mutant
T1 sequence (looked up): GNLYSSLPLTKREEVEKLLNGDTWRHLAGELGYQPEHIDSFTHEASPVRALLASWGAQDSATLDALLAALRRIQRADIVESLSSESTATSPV
Described as above. To be noted: both partners purified.

The target in data set [4] is T1, p75CTD monomer (p75CTD C379S/C416S). Description: BLI; Octet (ForteBio); biotinylated p75CTD proteins loaded on Streptavidin High Binding FA biosensors; RIP2 CARD in solution at 5 µM, then 20, 10, 5 and 2 µM for the monomer; 50 mM Hepes-NaOH pH 7.5, 100 mM NaCl, 5% glycerol, 1 mM EDTA. As to conditions: both partners purified.
Data set [5] has as its target T2, p75CTD monomer (p75CTD C379S/C416S) (rat, UniProt P07174 334-425, C379S | C416S, biotinylated for the BLI assay).
T2 sequence: T1 sequence (looked up)
Description: BLI. (In general: Biolayer interferometry detects binding as a change in optical thickness at a sensor tip.)

Data set [6] concerns the molecule itself. Description: SEC; purified p75NTR constructs and their mutants on a Superdex 75 column; monomer and dimer peaks; some runs with beta-ME or DTNB. (In general: In gel filtration, larger molecules generally elute earlier.)
Data set [7] concerns the molecule itself. Description: crystal structure; p75DD modified with DTNB; sitting drop, 4 °C, 0.1 M Bis-Tris propane pH 7.0, 1.2 M sodium citrate; asymmetric dimer in the crystal lattice.
Data set [8] deals with the molecule itself. Description: immunoprecipitation and non-reducing SDS-PAGE immunoblot; HA-p75NTR in transfected HEK 293T cells without ligand; lysate in 40 mM Tris pH 7.6, 150 mM NaCl, 0.5% NP-40, 10% glycerol; anti-HA immunoprecipitates boiled with or without DTT, blotted with anti-HA.

For the molecule “p75DD-Fusion (chimera of the p75NTR death domain and a p75-interacting peptide from NRIF) (from UniProt P07174 334-418)”, the stoichiometry N in data set [1] worked out at 2.
As to “NRIF peptide (residues 552-577), chemically synthesized”, the Kd in data set [2] was 10 µM.
Take MESGAGRASDNSLLTHALPVKSHQKG [NRIF peptide (residues 552-577), chemically synthesized]: in data set [3], the Kd was about 10 µM.

B1: Human RIP2 CARD domain (residues 438-524) (domain or fragment, UniProt O43353 438-524, looked up)
chain: QWIQSKREDIVNQMTEACLNQSLDALLSRDLIMKEDYELVSTKPTRTSKVRQLLDTTDIQGEEFAKVIVQKLKDNKQMGLQPYPEIL
notes: pET24a vector; also called CARD protein; source: E. coli, purified (similar to p75DD)
Regarding B1, the “fold stronger than the NRIF peptide on p75CTD (KD about 10^-5 M)” value in data set [4] is about 100 fold. Further, binding in data set [5] was put at a Kd of 0.24 µM.

B2: p75DD (rat p75NTR death domain, residues 334-418) (domain or fragment, UniProt P07174 334-418, looked up)
chain: GNLYSSLPLTKREEVEKLLNGDTWRHLAGELGYQPEHIDSFTHEACPVRALLASWGAQDSATLDALLAALRRIQRADIVESLCSE
notes: p75NTR (neurotrophin receptor p75), rat, death domain, residues 334-418; pET24a vector; Not treated with DTNB in the solution experiments (the DTNB-treated crystal form is m2); also called His6-tagged p75DD; source: E. coli BL21, purified (Ni-NTA, size-exclusion chromatography); also co-expressed in E. coli with GST-tagged NRIF loop region (521-661); not shown: His6, C-terminal, kept
As for B2, in data set [6], the “stoichiometry N” value was 2.

B3: p75DD modified with DTNB (as crystallised) (domain or fragment, rat, UniProt P07174 334-418, looked up)
chain: B2 chain
modifications: Cys379 and Cys416 modified by DTNB (MNB group)
notes: p75NTR, rat, death domain, residues 334-418 (334-417 traced in the structure); Same construct as m1 after treatment with DTNB at a 5:1 molar ratio; also called DTNB-modified p75DD; source: E. coli BL21, purified (Ni-NTA, size-exclusion chromatography), then modified with DTNB
Take B3: the binding result in data set [7] is “binds”.

B4: p75CTD C416S (domain or fragment, rat, UniProt P07174 334-425, looked up)
chain: T1 sequence (looked up) with S46C
notes: p75NTR, rat, residues 334-425; Mutant of m3, the single chain for its self-association; the isolated dimer is m12; also called C416S mutant of p75CTD
Take B4: the “stoichiometry N” value in data set [6] was found to be 2.

B5: p75CTD (rat p75NTR residues 334-425) (domain or fragment, UniProt P07174 334-425, looked up)
chain: T1 sequence (looked up) with S46C, S83C
notes: p75NTR, rat, death domain and C-terminal tail, residues 334-425; pET24a vector; source: E. coli BL21, purified (Ni-NTA, size-exclusion chromatography)
For B5, the “stoichiometry N” value in data set [6] is 2.

B6: full-length rat p75NTR with N-terminal HA tag (receptor, UniProt P07174 30-425, looked up)
chain: KETCSTGLYTHSGECCKACNLGEGVAQPCGANQTVCEPCLDNVTFSDVVSATEPCKPCTECLGLQSMSAPCVEADDAVCRCAYGYYQDEETGHCEACSVCEVGSGLVFSCQDKQNTVCEECPEGTYSDEANHVDPCLPCTVCEDTERQLRECTPWADAECEEIPGRWIPRSTPPEGSDSTAPSTQEPEVPPEQDLVPSTVADMVTTVMGSSQPVVTRGTTDNLIPVYCSILAAVVVGLVAYIAFKRWNSCKQNKQGANSRPVNQTPPPEGEKLHSDSGISVDSQSLHDQQTHTQTASGQALKGDGNLYSSLPLTKREEVEKLLNGDTWRHLAGELGYQPEHIDSFTHEACPVRALLASWGAQDSATLDALLAALRRIQRADIVESLCSESTATSPV
notes: p75NTR, rat, full length; pCDNA3 construct, a gift; also called wildtype; full-length p75NTR; source: HEK 293T, transiently transfected, in lysate; not shown: HA, N-terminal, kept
Turning to B6, the “stoichiometry N” value in data set [8] is 2.

B7: p75ICD (rat p75NTR intracellular region, residues 280-425) (domain or fragment, UniProt P07174 280-425, looked up)
chain: KQNKQGANSRPVNQTPPPEGEKLHSDSGISVDSQSLHDQQTHTQTASGQALKGDGNLYSSLPLTKREEVEKLLNGDTWRHLAGELGYQPEHIDSFTHEACPVRALLASWGAQDSATLDALLAALRRIQRADIVESLCSESTATSPV
notes: p75NTR, rat, intracellular region, residues 280-425; pET24a vector; source: E. coli BL21, purified (Ni-NTA, size-exclusion chromatography)
As for B7, the “stoichiometry N” value in data set [6] came to 2.

The values above are taken from paper PMC3589453, “Structural Characterization of the Self-Association of the Death Domain of p75^NTR” (PLoS ONE, 2013).
